In patent publication US20040171005A1, “Codon-optimised nucleic acid coding for apoaequorin and uses thereof” (priority 2001, published 2004):

What was measured:
HEK293 cells = assay: Aequorin luminescence (calcium flux) after Ionomycin stimulation of transiently transfected cells; format: cell-based; details: for Peak Relative Light Units (RLU) following Ionomycin Stimulation: HEK293 cells transiently transfected, 48 hours post transfection; for fold increase in RLU relative to wild type aequorin: number in parenthesis; for fold increase in luminescent output (RLU) with the codon optimised aequorin: text summary over 1 and 2 μM CaCl2, Ionomycin stimulation, versus wild type
Description: CHOK1 and Phoenix (HEK293 derived) cells were grown in Ham's F12 and DMEM respectively. The medium was supplemented with10% foetal calf serum, 2 mM glutamine, penicillin and streptomycin 100 μg/ml.
Cells were seeded in Costar 6 well plates at a density of 5×10^5 18-24 hours prior to transfection. On the day of transfection the cells were 85-90% confluent. Plasmids, cytaeqHA1(9aa)pcDNA3#2 and hucytaeqHA(9aa)pcDNA3#20, were transfected into the cells using Lipofectamine Plus reagents. A co-transfection with EGFP (Clontech) allowed transfection variation between wells to be ascertained. A modification to the standard protocol from Life Technologies was used. In summary, 2 μg of DNA (1 μg of each for co-transfections) diluted in 400 μl of HamsF12+12 μl lipofectamnine plus reagent was incubated for 15 minutes at room temperature. 8 μl of Lipofectamine reagent +400 μl of HamsF12 medium was also incubated for 15 minutes at room temperature. The two mixtures were combined and incubated for a further 15 minutes before being aspirated onto the cells containing 1.6 mls of Ham's F12 medium. The plates were incubated for 3 hours at 37° C. 5% CO2. The transfection reagents were replaced with Ham's F12 complete medium and the cells incubated for 24 hours. At 24 hours the cells were transferred to 96 well plates. 48 hours post transfection the 96 wells were rinsed in PBS and replaced with 50 μl of DMEM (without phenol red) containing 1% heat inactivated FCS and 2.5 μm hcp coelenterazine. The cells were incubated at 37° C. 5% CO2 for 3 hours. The wells were aspirated of the coelenterazine mix and replaced with 175 μl of PBS containing either 1 μM or 2 μM CaCl2. The plates were transferred to Tropix TR717 luminometer for stimulation. 2 μM of ionomycin (25 μl), a calcium ionophore, was injected into the wells and the reaction recorded over 60 seconds. 1:
Numbers in parenthesis represent the fold increase in RLU relative to wild type aequorin.

HEK 293 cells = assay: Immunoblotting of HA-tagged aequorin expression (3F10 antibody, pixel quantification); format: cell-based; details: western blot against HA epitope; HEK 293 lysates 48 hours post transfection; ImageQuant pixel quantification
Description: Expression of recombinant protein was verified by immuoblotting using Anti-HA-Peroxidase, High Affinity (3F10) monoclonal antibody (Roche). This antibody recognizes the HA peptide sequence […] derived from the […] hemagglutinin protein (Kolodziej &Young, Methods Enzymol. 194:508-511, […]). HEK 293 cells were transiently transfected with the codon optimised and the wild type aequorin constructs. Cell lysates were prepared 48 hours post transfection, proteins (130 μg) separated by SDS-PAGE electrophoresis, transferred to nylon membrane and stained with a 1:500 dilution of 3F10 antibody. Protein expression was quantitated using pixel quantification in ImageQuant software (Molecular Dynamics) and indicated a 8-fold increase in expression of cythuAEQ over cytAEQ.

Row | Molecule | Peak Relative Light Units (RLU) following Ionomycin Stimulation (HEK293 cells; 1 μM CaCl2) [RLU] | Peak Relative Light Units (RLU) following Ionomycin Stimulation (HEK293 cells; 2 μM CaCl2) [RLU] | fold increase in RLU relative to wild type aequorin (HEK293 cells; 1 μM CaCl2) [fold] | fold increase in RLU relative to wild type aequorin (HEK293 cells; 2 μM CaCl2) [fold] | fold increase in luminescent output (RLU) with the codon optimised aequorin (HEK293 cells; listed as codon optimised aequorin) | fold increase in luminescent output (RLU) with the codon optimised aequorin (HEK293 cells; listed as codon-optimised sequence) [fold] | fold increase in expression over non-humanised (wild type) aequorin (HEK 293 cells) [fold]
1 | Wild type: Wild-type jellyfish apoaequorin gene SEQ ID NO: 2 with HA1 epitope in pcDNA3, used as control (nucleic acid, listed as Aequorea victoria, HA1 epitope fused, in pcDNA3) DNA: ATGAAGCTTACATCAGACTTCGACAACCCAAGATGGATTGGACGACACAAGCATATGTTCAATTTCCTTGATGTCAACCACAATGGAAAAATCTCTCTTGACGAGATGGTCTACAAGGCATCTGATATTGTCATCAATAACCTTGGAGCAACACCTGAGCAAGCCAAACGACACAAAGATGCTGTAGAAGCCTTCTTCGGAGGAGCTGGAATGAAATATGGTGTGGAAACTGATTGGCCTGCATATATTGAAGGATGGAAAAAATTGGCTACTGATGAATTGGAGAAATACGCCAAAAACGAACCAACGCTCATCCGTATATGGGGTGATGCTTTGTTTGATATCGTTGACAAAGATCAAAATGGAGCCATTACACTGGATGAATGGAAAGCATACACCAAAGCTGCTGGTATCATCCAATCATCAGAAGATTGCGAGGAAACATTCAGAGTGTGCGATATTGATGAAAGTGGACAACTCGATGTTGATGAGATGACAAGACAACATTTAGGATTTTGGTACACCATGGATCCTGCTTGCGAAAAGCTCTACGGTGGAGCTGTCCCCTAA | 944 | 734 | – | – | – | – | –
2 | Codon optimised: Codon-optimised (humanised) apoaequorin coding sequence SEQ ID NO: 3 with HA1 epitope, in pcDNA3 expression plasmid (nucleic acid, HA1 epitope fused, in pcDNA3; humanised apoaequorin) DNA: ATGAAGCTGACCCCCGACTTCGACAACCCCAAGTGGATCGGCCGCCACAAGCACATGTTCAACTTCCTGGACGTGAACCACAACGGCCGCATCAGCCTGGACGAGATGGTGTACAAGGCCAGCGACATCGTGATCAACAACCTGGGCGCCACCCCCGAGCAGGCCAAGCGCCACAAGGACGCCGTGGAGGCCTTCTTCGGCGGCGCCGGCATGAAGTACGGCGTGGAGACGGAGTGGCCCGAGTACATCGAGGGCTGGAAGCGCCTGGCCTCCGAGGAACTGAAGCGCTACAGCAAGAACCAGATCACCCTGATCCGCCTGTGGGGCGACGCCCTGTTCGACATCATCGACAAGGACCAGAACGGCGCCATCTCCCTGGATGAGTGGAAGGCCTACACCAAGTCCGTCGGCATCATCCAGTCCTCCGAGGACTGCGAGGAGACGTTCCGCGTGTGCGACATCGACGAGAGCGGCCAGCTGGACGTGGACGAGATGACCCGCCAGCACCTGGGCTTCTGGTACACCATGGACCCCGCCTGCGAGAAGCTGTACGGCGGCGCCGTGCCCTAA | 18008 | 15561 | 19 | 21 | 19-21 fold | > 20 | ~8
